Data published in publication doi:10.1101/2021.10.20.465058 (bioRxiv, 2021).

Tests used:
cryo-EM structure [1] = biological target: the molecule itself; assay: cryo-EM structure
cryo-EM structure [2] = biological target: the molecule itself; assay: cryo-EM structure; remark: listed apart in the source
native gel or EMSA = biological target: the molecule itself; assay: native gel or EMSA
[3] = biological target: the molecule itself; assay: single-particle cryo-EM, 2D class averages only

B1: Aq_740, AI-2 exporter from Aquifex aeolicus (natural protein, UniProt O66948 1-353, looked up)
chain: MNKLSLFVYLFFFLSFLFLFLYLLQPFFNPIVWAIVFGIVLYPLYGFIKRKLKSENLAAFLVIFIVLVAIVIPFTIFAVITAQQIIVFSIKVVNFVQTHSVNDLINSLKEIPFLKEKRESLEPLLNYLQSEEFRRALINALNSILTFVGDRLRSYVYTAGTSLFHVFVFLLTLFFILRDGEKVLKEIINSIPMKREDLEEILKTIYRTVLAVIYGTVGTAVAQSIMGFIGYSLAGVEFALIWALITFFAAFVPPFGAAFVWVPMDIYLFTTKGIKEGLILLFFGTFLISTMDNIVRPLVMKQGIKLPYVALFFSTIGGLIKFGFIGVFLGPIILSTMLASVKIYRRRVIHSGI
- stoichiometry N (cryo-EM structure [1]): 5

B2: YdiK, AI-2 exporter from E. coli (natural protein, Escherichia coli K-12, UniProt P0AFS7 1-370, looked up)
chain: MVNVRQPRDVAQILLSVLFLAIMIVACLWIVQPFILGFAWAGTVVIATWPVLLRLQKIMFGRRSLAVLVMTLLLVMVFIIPIALLVNSIVDGSGPLIKAISSGDMTLPDLAWLNTIPVIGAKLYAGWHNLLDMGGTAIMAKVRPYIGTTTTWFVGQAAHIGRFMVHCALMLLFSALLYWRGEQVAQGIRHFATRLAGVRGDAAVLLAAQAIRAVALGVVVTALVQAVLGGIGLAVSGVPYATLLTVLMILSCLVQLGPLPVLIPAIIWLYWTGDTTWGTVLLVWSGVVGTLDNVIRPMLIRMGADLPLILILSGVIGGLIAFGMIGLFIGPVLLAVSWRLFAAWVEEVPPPTDQPEEILEELGEIEKPNK
- stoichiometry N (cryo-EM structure [2]): 5

B3: PerM, AI-2 exporter from E. coli (natural protein, Escherichia coli K-12, UniProt P0AFI9 1-353, looked up)
chain: MLEMLMQWYRRRFSDPEAIALLVILVAGFGIIFFFSGLLAPLLVAIVLAYLLEWPTVRLQSIGCSRRWATSIVLVVFVGILLLMAFVVLPIAWQQGIYLIRDMPGMLNKLSDFAATLPRRYPALMDAGIIDAMAENMRSRMLTMGDSVVKISLASLVGLLTIAVYLVLVPLMVFFLLKDKEQMLNAVRRVLPRNRGLAGQVWKEMNQQITNYIRGKVLEMIVVGIATWLGFLLFGLNYSLLLAVLVGFSVLIPYIGAFVVTIPVVGVALFQFGAGTEFWSCFAVYLIIQALDGNLLVPVLFSEAVNLHPLVIILSVVIFGGLWGFWGVFFAIPLATLIKAVIHAWPDGQIAQE
- stoichiometry N (native gel or EMSA): 2

B4: YhhT, AI-2 exporter from E. coli (natural protein, Escherichia coli K-12, UniProt P0AGM0 1-349, looked up)
chain: METPQPDKTGMHILLKLASLVVILAGIHAAADIIVQLLLALFFAIVLNPLVTWFIRRGVQRPVAITIVVVVMLIALTALVGVLAASFNEFISMLPKFNKELTRKLFKLQEMLPFLNLHMSPERMLQRMDSEKVVTFTTALMTGLSGAMASVLLLVMTVVFMLFEVRHVPYKMRFALNNPQIHIAGLHRALKGVSHYLALKTLLSLWTGVIVWLGLELMGVQFALMWAVLAFLLNYVPNIGAVISAVPPMIQVLLFNGVYECILVGALFLVVHMVIGNILEPRMMGHRLGMSTMVVFLSLLIWGWLLGPVGMLLSVPLTSVCKIWMETTKGGSKLAILLGPGRPKSRLPG
- stoichiometry N [3]: 5

B5: TqsA (transporter of quorum-sensing signal AI-2) from E. coli (natural protein, Escherichia coli K-12, UniProt P0AFS5 1-344, looked up)
chain: MAKPIITLNGLKIVIMLGMLVIILCGIRFAAEIIVPFILALFIAVILNPLVQHMVRWRVPRVLAVSILMTIIVMAMVLLLAYLGSALNELTRTLPQYRNSIMTPLQALEPLLQRVGIDVSVDQLAHYIDPNAAMTLLTNLLTQLSNAMSSIFLLLLTVLFMLLEVPQLPGKFQQMMARPVEGMAAIQRAIDSVSHYLVLKTAISIITGLVAWAMLAALDVRFAFVWGLLAFALNYIPNIGSVLAAIPPIAQVLVFNGFYEALLVLAGYLLINLVFGNILEPRIMGRGLGLSTLVVFLSLIFWGWLLGPVGMLLSVPLTIIVKIALEQTAGGQSIAVLLSDLNKE
- stoichiometry N (cryo-EM structure [2]): 5
